Results: US20190002945A1

Molecular target: deglycosylated rituximab (Fucα1,6GlcNAc-rituximab)
Test: cell-based or functional assay

Substance	KM (µM), transglycosylation kinetics for the deglycosylated rituximab [µM]	KM relative to Endo-S2 D184M [fold]
Endo-S2 D184M mutant (D184M mutant of wild type Endo-S2) (from UniProt T1WGN1 37-843) (enzyme)	32.6	
Endo-S D233A mutant (Streptococcus pyogenes Endoglycosidase-S Asp-233-Ala) (from UniProt Q99Y92 37-995) (enzyme)	> 200	
Endo-S D233M mutant (Streptococcus pyogenes Endoglycosidase-S Asp-233-Met) (from UniProt Q99Y92 37-995) (enzyme)	30.2	
Endo-S2 D184A mutant (D184A mutant of wild type Endo-S2) (from UniProt T1WGN1 37-843) (enzyme)	> 680	> 20
